In patent publication US20080113421A1, “Stabilizing proteins against denaturation and inactivation by charged detergents using chemical modifications, including modifications that increase net charge” (President and Fellows of Harvard College, priority 2006, published 2008):

Legend:
[1] = from solutions of GuHCl; cited from earlier work
[2] = Denaturation of BCA charge ladders in 3 mM SDS (dialysis cassette) followed by capillary electrophoresis, with transition-state model fit; type: physicochemical
Experimental: Denaturation experiments were performed as follows. A charge ladder of BCA (BCA-Acn or BCA-Hexn, 1 mL of 100 micromolar total protein in Tris-Gly buffer) was placed in a dialysis cassette (MW cutoff of 10 kDa). The dialysis cassette was placed in a 1 L bath of 3 mM SDS in Tris-Gly buffer at room temperature. The buffer was changed every 24 h. At regular intervals of time (approximately every half-hour), 100 microliters of the protein solution was removed from the dialysis cassette; ˜7 microliters of that aliquot was diluted 10-fold and the absorbance of the diluted sample at 280 nm (ε280,BcA=57,000 M^−1 cm^−1, the absorption cross section can be assumed to be is unchanged by acylation) was measured to determine the total protein concentration. The aliquot was diluted because the absorbance of the 100 micromolar solution was too high to be read accurately by the ultraviolet spectrometer. This diluted aliquot was discarded. The remainder of the solution was then run on CE. The protein solution, except for the portion diluted for ultraviolet measurement, was returned to the dialysis cassette; the aliquot was outside of the dialysis cassette for ˜5 min.
Capillary electrophoresis experiments were carried out in a Beckman (Fullerton, Calif.) PACE-MDQ system, using a capillary of inner diameter of 50 micrometers of total length of 110.2 cm, 100 cm to the detector. Tris-Gly in D2O was used as the running buffer, and the applied voltage was 30 kV. D2O was used in place of H2O for the electrophoresis buffer because the viscosity of D2O is higher than that of H2O and the higher viscosity minimizes diffusion. Samples were injected using pressure (20 psi) for 30 s. Each sample contained 0.65 mM dimethylformamide as an electrically neutral marker for electroosmotic flow.
The CMC of SDS in the Tris-Gly buffer used in this example was 4.3 mM. 3 mM SDS was chosen for these experiments because this concentration of SDS denatured BCA in an interval of time that was convenient for experimental work using CE. In addition, this concentration of SDS was close to the concentration often used in SDS-PAGE (0.1% or 3.5 mM). 1 mL of a solution of ˜100 micromolar of a charge ladder of BCA, dissolved in Tris-Gly buffer, was placed into a dialysis cassette (molecular weight cutoff of 10 kDa) and the cassette placed in 1 L of Tris-Gly buffer containing 3 mM SDS. The bath was kept at room temperature (˜22° C.) for the duration of the experiment.
At regular intervals of time (approximately every half hour), 100-microliter aliquots of the solutions containing the charge ladder of BCA were removed from the cassette in a bath of 3 mM SDS in Tris-Gly buffer, the total protein concentration in the aliquot was measured using absorbance at 280 nm, and a portion (˜10 nL) of the aliquot injected onto the CE. The unused portions of the aliquots were then returned to the cassette.
Residence time in the detection volume was determined as follows. […] If two proteins with the same absorptivity were present in a sample in equal concentrations, the protein of lower velocity would have a larger measured peak area than the protein of higher velocity. To correct for this experimental bias, the area of each peak was multiplied-by the velocity of the protein (Acorr=Ameasured×LD/tD), where LD is the length of the capillary from the end (where injection occurs) to the detector (100 cm in all of these experiments) and tD is the time it takes for the rung to reach the detector.
Initial differences in concentrations of each rung were as follows. The areas of each of the rungs in the charge ladder were not all equal before denaturation. To measure the fraction of each rung that has denatured at each time, the velocity-corrected area of each rung in the sample was divided by the velocity-corrected area of that rung in the charge ladder run in the absence of SDS.
A comparison of the rates of denaturation follows. […]

[3] = Refolding of SDS-denatured protein by dilution or removal of SDS, monitored by DNSA fluorescence; type: physicochemical
Experimental: Monitoring refolding of BCA and BCA-Ac18 was performed as follows. The proteins (10 micomolar) were denatured in 10 mM SDS for 24 h. […] Refolding was initiated by dilution of an aliquot of the denatured sample to a final concentration of protein of 200 nM, with varying concentrations of SDS in the buffer. Immediately prior to the measurement, an aliquot of renaturing protein was mixed with an equal aliquot of DNSA. The rate constants for renaturation were determined by fitting the data to FU=FUmax(1-e^−kt)+FUmin. The refolding experiments at 37° C. were performed similarly.
The kinetics of refolding were determined as follows. The rates of refolding of BCA and BCA-Ac18 from the fully denatured states (in 10 mM SDS) were measured by dilution of the solutions into buffers containing concentrations of SDS from 0.1 to 2 mM, using the fluorescence of DNSA as a marker for the appearance of the folded state. […] As in denaturation studies, an aliquot of solution of the protein and SDS was mixed with an equal aliquot of solution of DNSA with the same amount of SDS immediately prior to the measurement to eliminate the possibility of DNSA influencing refolding kinetics. The buffer also contained 100 micromolar ZnSO4 to ensure that the folded protein could incorporate a Zn(II) cofactor.
The raw data emphasize the decrease in the yield of folded protein with increasing concentration of SDS. […] The half-lives (t1/2) for renaturation were determined, where possible, by fitting the data to FU=FUmax(1-exp(−t/t1/2))+FUmin; the fits are shown (solid lines). The tables provide data for refolding in 0.1 and 0.4 mM SDS as well as for concentrations on the graphs for comparison. […] The error bars represent the difference between the average and the largest and smallest values measured from at least three replicate measurements.

bovine carbonic anhydrase II [BCA]
time constant of rate-limiting step in folding [1]: ~10 min
ΔG‡ of denaturation (a coefficient) ([2]; 3 mM SDS, room temperature, assumes νκTST=10^6 s^−1): 14 ± 1 kcal/mol
radius of the transition state RTS ([2]; model, assuming a radius of BCA of 2 nm): 2.1 nm
concentration of SDS at which no refolded protein was observed ([3]; dilution from 10 mM SDS): ≥ 800 µM
range of SDS concentrations in which protein neither refolds nor unfolds at an observable rate (window) ([3]; time scales of a month): 0.8 to 2 mM
refolding rate (given as time) after denaturation with SDS ([3]; upon complete removal of the SDS): 11 ± 1 min
